Assay results taken from PMC8420761.

Molecular target: Mycobacterium tuberculosis H37Rv HigA2 antitoxin (Mycobacterium tuberculosis H37Rv) (UniProt O53467)
Experiment: not stated; in solution; purified MtHigA2

Q: Which stoichiometry N does the source give for “Mycobacterium tuberculosis H37Rv HigA2 antitoxin (from UniProt O53467 1-101) (natural protein)” here?
A: 2
